# Laboratory results published in patent US20240287172A1 (SCIRHOM, published 2024).
# T1: hiR2-FL-T555A-T7 (human, UniProt Q6PJF5 1-856)
# T1 sequence: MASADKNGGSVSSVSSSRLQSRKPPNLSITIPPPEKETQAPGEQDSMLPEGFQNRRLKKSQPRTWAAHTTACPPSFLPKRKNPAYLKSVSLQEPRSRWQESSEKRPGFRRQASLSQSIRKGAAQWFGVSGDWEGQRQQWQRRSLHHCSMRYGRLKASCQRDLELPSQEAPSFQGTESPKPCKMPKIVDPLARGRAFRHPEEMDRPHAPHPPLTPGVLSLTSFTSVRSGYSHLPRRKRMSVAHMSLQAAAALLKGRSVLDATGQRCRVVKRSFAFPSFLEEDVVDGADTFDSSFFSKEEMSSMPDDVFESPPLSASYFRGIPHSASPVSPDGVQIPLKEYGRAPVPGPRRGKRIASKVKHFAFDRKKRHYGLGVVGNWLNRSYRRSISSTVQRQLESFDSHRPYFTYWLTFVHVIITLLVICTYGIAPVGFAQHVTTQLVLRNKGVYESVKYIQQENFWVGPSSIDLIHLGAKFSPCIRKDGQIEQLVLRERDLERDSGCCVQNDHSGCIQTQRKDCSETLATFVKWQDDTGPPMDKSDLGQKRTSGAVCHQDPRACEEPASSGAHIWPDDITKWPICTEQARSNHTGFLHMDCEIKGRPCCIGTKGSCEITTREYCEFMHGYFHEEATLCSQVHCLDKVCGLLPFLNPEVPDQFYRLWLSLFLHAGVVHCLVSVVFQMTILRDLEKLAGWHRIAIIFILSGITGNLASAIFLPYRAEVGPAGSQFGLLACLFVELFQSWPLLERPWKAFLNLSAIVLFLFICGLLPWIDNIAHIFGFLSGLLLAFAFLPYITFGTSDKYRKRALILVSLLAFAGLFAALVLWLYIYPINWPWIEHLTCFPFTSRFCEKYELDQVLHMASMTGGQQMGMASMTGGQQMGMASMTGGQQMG
# T2: hiR2-FL-Q580A-T7 (human, UniProt Q6PJF5 1-856)
# T2 sequence: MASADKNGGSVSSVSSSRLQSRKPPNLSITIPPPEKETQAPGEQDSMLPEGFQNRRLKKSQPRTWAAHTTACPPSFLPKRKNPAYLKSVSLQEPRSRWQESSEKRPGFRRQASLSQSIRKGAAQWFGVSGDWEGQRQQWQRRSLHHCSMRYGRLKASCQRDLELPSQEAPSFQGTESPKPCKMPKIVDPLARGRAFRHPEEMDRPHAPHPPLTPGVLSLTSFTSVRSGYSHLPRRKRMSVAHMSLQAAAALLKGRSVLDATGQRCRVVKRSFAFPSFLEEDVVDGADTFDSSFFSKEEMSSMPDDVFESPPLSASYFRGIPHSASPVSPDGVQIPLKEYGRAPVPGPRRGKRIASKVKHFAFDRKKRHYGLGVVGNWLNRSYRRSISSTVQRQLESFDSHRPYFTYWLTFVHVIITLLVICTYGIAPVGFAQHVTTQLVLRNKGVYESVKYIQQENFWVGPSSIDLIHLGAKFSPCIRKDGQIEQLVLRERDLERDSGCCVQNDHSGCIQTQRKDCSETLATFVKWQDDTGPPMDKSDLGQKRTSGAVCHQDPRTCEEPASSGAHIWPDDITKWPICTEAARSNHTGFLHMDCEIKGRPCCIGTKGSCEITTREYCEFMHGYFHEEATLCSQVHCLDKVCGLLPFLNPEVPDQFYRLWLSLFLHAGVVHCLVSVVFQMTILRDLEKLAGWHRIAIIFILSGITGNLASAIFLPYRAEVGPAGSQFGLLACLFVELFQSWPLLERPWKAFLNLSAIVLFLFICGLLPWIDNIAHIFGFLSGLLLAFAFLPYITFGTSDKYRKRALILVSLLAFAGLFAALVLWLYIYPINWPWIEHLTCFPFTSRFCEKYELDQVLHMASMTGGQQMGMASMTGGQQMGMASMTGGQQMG
# Experiments:
# hiR2-FL-T555A-T7 = biological target: T1, hiR2-FL-T555A-T7; experiment: FACS on MEF-DKO cells expressing the variant, 3 µg/ml antibody
# In short: (§1)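 Pelleted cells are resuspended in antibody at 3 μg/ml and kept on ice 1 hour, washed, then incubated with PE goat anti-mouse IgG F(ab′)2 diluted 1:100 on ice for 1 hour protected from light, washed again and analysed by flow cytometry.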
# hiR2-FL-Q580A-T7 = biological target: T2, hiR2-FL-Q580A-T7; experiment: as above
# In short: as §1
binder,measurement,setting,value
"antibody 3 (antibody, V domains shown, mouse IgG, kappa light chain; also called clone #3; purified antibody 3) VH: QVTLKESGPGILQPSQTLSLTCSFSGFSLTTFAMGIGWVRQPSGKGLEWLAHIWWDGEKYNNPVLKSRLTISKDTSKNQVFLRIANVDTPDTATYYCARISSIYYIIDNWGQGTSVTVSS VL: DIVLTQSPATLSVTPGHSVSLSCRASQSISNNLHWYQKKSHESPRLLIKYVSQSISGIPSRFSGSGSGTDFTLSINSVETEDFGMYFCQQSYNWPLTFGAGTKLELK",loss of binding vs wild type,hiR2-FL-T555A-T7,≥ 30%
same,loss of binding vs wild type,hiR2-FL-Q580A-T7,≥ 30%
